Paper PMC8479507 (Cell Reports, 2021)

Target: SARS-CoV-2 receptor-binding domain (RBD) (SARS-CoV-2 (Wuhan-Hu-1), UniProt P0DTC2)
Experiment: cell-based or functional assay

B1: monoclonal antibody 910-30, IgG (antibody, V domains shown)
VH: EVQLVESGGGLVQPGGSLRLSCAASGFTVSSNYMSWVRQAPGKGLEWVSLIYSGGSTYYADSVKGRFTISRHNSKNTLYLQMNSLRAEDTAVYYCARIYGDYAWGQGTLVTVSS
VL: not shown
- IC50 of neutralisation of authentic SARS-CoV-2; blocks RBD binding to ACE2: 0.142 µg/mL
